# Reference: PMC3699631, “Posttranslational Modifications of the Histone 3 Tail and Their Impact on the Activity of Histone Lysine Demethylases In Vitro” (PLoS ONE, 2013)
# Experiments:
# PHF8 = PHF8 with PHD domain; ref [5]; cited from earlier work
# From the text: The enzyme kinetics of FL-KDM4A and ...
# human cc-KDM4A = biological target: T1, human cc-KDM4A (Homo sapiens, UniProt O75164); assay: FDH-assay enzyme kinetics of H3 peptide demethylation, truncated KDM4A; format: biochemical; conditions: for K m / k cat / k cat /K m / demethylation / catalytic activity (in words): FDH-assay; for K m: 50 mM HEPES (pH 7.5), 50 mM NaCl, 50 µM FeSO4, 500 µM α-KG, 500 µM ascorbate, 2 mM NAD, substrate 10–1000 µM, NADH fluorescence 15–30 minutes; for K m / k cat / k cat /K m: triplicate; for k cat / k cat /K m: pH 7.5; for k cat: NADH fluorescence; for k cat /K m: SD by propagation of errors, unit: min^−1 * µM^−1 * 10^3; for demethylation / catalytic activity (in words): compared to H3(1–24)K9me3 where a change is stated
# T1 construct: Truncated constructs of KDM4A and KDM4C containing only the catalytic cores (cc-KDM4A/cc-KDM4C); made in house
# T1 sequence (O75164 1-350 limits assumed): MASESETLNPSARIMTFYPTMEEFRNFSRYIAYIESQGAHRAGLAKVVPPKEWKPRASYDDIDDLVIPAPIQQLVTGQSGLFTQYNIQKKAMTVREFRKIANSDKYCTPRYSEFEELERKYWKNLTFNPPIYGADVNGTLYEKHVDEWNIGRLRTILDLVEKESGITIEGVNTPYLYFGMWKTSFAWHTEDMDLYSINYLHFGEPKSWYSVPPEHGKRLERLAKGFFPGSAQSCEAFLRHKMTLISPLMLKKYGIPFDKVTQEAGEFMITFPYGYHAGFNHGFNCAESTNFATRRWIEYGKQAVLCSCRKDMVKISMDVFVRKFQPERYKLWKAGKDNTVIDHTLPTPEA
# Experimental: (§1) The enzyme kinetics were measured using a Formaldehyde DeHydrogenase Assay (FDH-Assay) and the demethylation of substrates was confirmed when possible by MALDI-TOF-MS, see File S1 for details. The test solution contained 50 mM HEPES (pH 7.5), 50 mM NaCl, 50 µM FeSO4, 500 µM α-KG, 500 µM ascorbate, 2 mM NAD, approximately 0.05 unit of FDH and e.g. 4.88 µM KDM4C (enzyme concentration varied between batches). The reference solution was comprised of the same except substrate. The assay was initiated by adding various concentrations of H3 peptide substrates e.g. H3(1–24)K9me3 (10–1000 µM) and the increase in NADH fluorescence was measured over 15–30 minutes in 30 second intervals. Data analysis and kinetic values were obtained using programs Excel and GraphPad Prism® 5.0. For details, see File S1.
# (§2) The standard deviations for k cat/K m were calculated using the statistic law of propagation of errors. Standard errors for Michaelis-Menten Kinetics were automatically given in GraphPad Prism®, with a 95% confidence interval. All enzyme kinetic curves were done in triplicate unless otherwise stated.
# (§3) Test for activity of enzyme using the fluorescence FDH assay, determination of Vmax and Km of enzymes with substrate, expression and purification of cc-KDM4A and cc-KDM4C software and parameters for the FDH coupled assay, see Lohse et al.^21
# as §2, with “kcat/ Km” for “k cat/K m”, “95 %” for “95%”
# human cc-KDM4C = biological target: T2, human cc-KDM4C (Homo sapiens, UniProt Q9H3R0); assay: FDH-assay enzyme kinetics of H3 peptide demethylation, truncated KDM4C; format: biochemical; conditions: for K m / demethylation / catalytic activity (in words) / k cat / k cat /K m: FDH-assay; for K m: 50 mM HEPES (pH 7.5), 50 mM NaCl, 50 µM FeSO4, 500 µM α-KG, 500 µM ascorbate, 2 mM NAD, substrate 10–1000 µM, e.g. 4.88 µM KDM4C, NADH fluorescence 15–30 minutes; for K m / k cat: triplicate; for demethylation / catalytic activity (in words): compared to H3(1–24)K9me3 where a change is stated; for k cat: pH 7.5, NADH fluorescence; for k cat /K m: pH 7.5, triplicate, SD by propagation of errors, unit: (min^−1 * µM^−1) * 10^3; for fold decrease in catalytic activity (k cat/K m): compared to H3(1–24)K9me3
# T2 construct: Truncated constructs of KDM4A and KDM4C containing only the catalytic cores (cc-KDM4A/cc-KDM4C); made in house
# T2 sequence (Q9H3R0 1-349 limits assumed): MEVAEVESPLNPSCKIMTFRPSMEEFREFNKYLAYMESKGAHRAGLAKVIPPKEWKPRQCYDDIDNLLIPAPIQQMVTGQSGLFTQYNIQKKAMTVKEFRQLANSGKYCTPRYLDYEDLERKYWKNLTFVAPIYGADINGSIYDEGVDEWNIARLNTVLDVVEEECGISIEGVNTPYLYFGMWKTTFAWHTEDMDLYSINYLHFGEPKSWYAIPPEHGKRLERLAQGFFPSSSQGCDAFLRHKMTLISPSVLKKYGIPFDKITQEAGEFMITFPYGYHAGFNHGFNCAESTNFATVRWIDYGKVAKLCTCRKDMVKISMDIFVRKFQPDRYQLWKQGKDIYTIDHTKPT
# Experimental: as §1, §2, §3
# as §2, with “kcat/ Km” for “k cat/K m”, “95 %” for “95%”
fold difference in catalytic activity between cc-KDM4A and cc-KDM4C (human cc-KDM4A; cc-KDM4A versus cc-KDM4C) [fold],K m (human cc-KDM4A; cc-KDM4A),k cat (human cc-KDM4A; cc-KDM4A),k cat /K m (human cc-KDM4A; cc-KDM4A),"fold increase in k cat/K m (human cc-KDM4A; cc-KDM4A, compared to H3(1–24)K9me3) [fold]",K m (human cc-KDM4C),demethylation / catalytic activity (in words) (human cc-KDM4C),k cat (human cc-KDM4C),k cat /K m (human cc-KDM4C),fold decrease in catalytic activity (k cat/K m) (human cc-KDM4C) [fold],Substance,change of K m (PHF8),change of k cat (PHF8),demethylation / catalytic activity (in words) (human cc-KDM4A; cc-KDM4A)
,,,,,,,,,,H3(1–24)K4me3-K9me2: H3(1–24) substrate with trimethylated K4 and dimethylated K9,a decrease in K m,an increase in k cat,
10,33±4,1.0±0.03,30.3±3.8,3,35.2±20,a decrease,0.1±0.01,2.8±0.2,3,H3(1–24)K9me3K14(ac): histone peptide containing H3K9me3 in combination with acetylation of K14,,,an increase in the enzymatic catalytic efficiency
,162±15,1.2±0.04,7.4±0.7,,207±50,did not prevent demethylation,0.38±0.04,1.8±0.1,5,H3(1–24)T3(ph)K9me3: phosphorylation of threonine 3 in combination with lysine 9 trimethylation,,,did not prevent demethylation
